Data as given in patent US20130337438A1 (JAPAN HEALTH SCIENCES FOUNDATION, published 2013).

How the values were obtained:
HPV16 L1/L2-capsid = biological target: T1, HPV16 L1/L2-capsid (human papillomavirus type 16, UniProt P03107 1-473; P03101 1-505); test: hybridoma screening ELISA on HPV16 L1/L2-capsid
T1 construct: Capsid of co-expressed L1 and L2; It was made in 293FT cells (Test Method 2) or in Sf9 insect cells with baculovirus (Test Method 3); The pseudovirus of Test Method 1 is the same capsid carrying a SEAP plasmid; also called L1/L2-capsid of type 16; HPV16 pseudovirus (PsV)
T1 sequence 1: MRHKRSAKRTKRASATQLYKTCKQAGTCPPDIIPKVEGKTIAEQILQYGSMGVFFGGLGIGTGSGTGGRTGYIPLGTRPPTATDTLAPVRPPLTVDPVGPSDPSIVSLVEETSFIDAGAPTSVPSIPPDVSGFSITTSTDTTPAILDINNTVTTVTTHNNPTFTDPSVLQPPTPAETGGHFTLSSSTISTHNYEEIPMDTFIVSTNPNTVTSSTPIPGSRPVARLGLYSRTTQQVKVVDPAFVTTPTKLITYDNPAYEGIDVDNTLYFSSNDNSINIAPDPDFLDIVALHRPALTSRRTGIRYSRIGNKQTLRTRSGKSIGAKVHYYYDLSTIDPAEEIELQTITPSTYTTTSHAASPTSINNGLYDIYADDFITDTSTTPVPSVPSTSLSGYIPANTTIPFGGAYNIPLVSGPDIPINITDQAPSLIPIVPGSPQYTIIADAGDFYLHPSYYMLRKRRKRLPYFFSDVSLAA
T1 sequence 2: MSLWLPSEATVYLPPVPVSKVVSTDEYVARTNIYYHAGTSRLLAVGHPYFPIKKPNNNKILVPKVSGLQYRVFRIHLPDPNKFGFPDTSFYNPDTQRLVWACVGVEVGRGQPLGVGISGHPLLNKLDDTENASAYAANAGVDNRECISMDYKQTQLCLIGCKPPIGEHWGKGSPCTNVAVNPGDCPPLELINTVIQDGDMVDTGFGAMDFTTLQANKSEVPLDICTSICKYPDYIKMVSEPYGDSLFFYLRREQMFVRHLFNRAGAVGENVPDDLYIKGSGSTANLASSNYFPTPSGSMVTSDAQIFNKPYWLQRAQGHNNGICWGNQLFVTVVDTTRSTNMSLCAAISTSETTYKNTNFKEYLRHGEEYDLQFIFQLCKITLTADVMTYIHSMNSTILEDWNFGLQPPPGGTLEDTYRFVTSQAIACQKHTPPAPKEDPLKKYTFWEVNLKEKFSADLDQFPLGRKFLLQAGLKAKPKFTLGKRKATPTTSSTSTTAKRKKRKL

[1] = biological target: T2, P56/75 (amino acids 56-75 of HPV16 L2 protein) (human papillomavirus type 16, conjugated with keyhole limpet hemocyanin (KLH) via cysteine); test: affinity purification on KLH-P56/75 sepharose
T2 construct: Synthetic peptide; It was conjugated with KLH via an added cysteine (KLH-P56/75); also called KLH-P56/75; L2 peptide (56-75)
T2 peptide: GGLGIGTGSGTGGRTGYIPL

HPV31 L1/L2-capsid = biological target: T3, HPV31 L1/L2-capsid (human papillomavirus type 31, UniProt P17389 1-466; P17388 1-504); test: ELISA on immobilized L1/L2-capsid, purified antibody 250 ng/well
T3 construct: Capsid of co-expressed L1 and L2 from 293FT cells; The pseudovirus is the same capsid with a reporter plasmid; also called L1/L2-capsid of type 31; HPV31 pseudovirus
T3 sequence 1: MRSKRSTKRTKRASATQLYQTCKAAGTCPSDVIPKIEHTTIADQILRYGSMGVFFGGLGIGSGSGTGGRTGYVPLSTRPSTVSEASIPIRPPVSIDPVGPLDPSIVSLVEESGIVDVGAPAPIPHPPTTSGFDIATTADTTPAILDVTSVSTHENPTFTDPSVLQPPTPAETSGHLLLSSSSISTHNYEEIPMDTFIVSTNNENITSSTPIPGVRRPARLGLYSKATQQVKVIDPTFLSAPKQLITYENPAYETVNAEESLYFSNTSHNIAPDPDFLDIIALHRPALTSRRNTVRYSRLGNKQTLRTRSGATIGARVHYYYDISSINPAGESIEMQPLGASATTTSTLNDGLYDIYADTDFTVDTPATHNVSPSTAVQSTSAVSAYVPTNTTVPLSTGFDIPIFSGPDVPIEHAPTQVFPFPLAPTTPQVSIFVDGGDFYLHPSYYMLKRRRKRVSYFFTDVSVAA
T3 sequence 2: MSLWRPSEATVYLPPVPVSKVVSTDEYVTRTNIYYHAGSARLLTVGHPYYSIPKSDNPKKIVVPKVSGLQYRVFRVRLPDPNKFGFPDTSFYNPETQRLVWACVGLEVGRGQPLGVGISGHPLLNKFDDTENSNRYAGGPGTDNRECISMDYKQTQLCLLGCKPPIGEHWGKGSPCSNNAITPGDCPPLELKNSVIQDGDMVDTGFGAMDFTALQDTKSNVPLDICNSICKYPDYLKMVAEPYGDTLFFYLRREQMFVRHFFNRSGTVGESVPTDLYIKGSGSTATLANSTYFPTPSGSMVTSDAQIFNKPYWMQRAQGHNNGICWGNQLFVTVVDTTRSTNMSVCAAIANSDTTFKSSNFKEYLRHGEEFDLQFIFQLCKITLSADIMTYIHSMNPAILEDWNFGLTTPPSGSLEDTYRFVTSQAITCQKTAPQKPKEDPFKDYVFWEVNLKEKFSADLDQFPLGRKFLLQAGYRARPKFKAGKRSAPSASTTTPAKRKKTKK

Measured: binding result

B1: monoclonal antibody 13B (antibody, V domains shown)
VH: DVQLQESGPGLVKPSQSLSLSCTVTGYSITSDSAWNWIRQFPGNKLEWMGYITFSGSTNYNPSLKSRLSITRDTSKNQFFLQLNSVTTEDTATYYCTGPFLDYWGQGTTLTVSS
VL: DVVMTQTPLSLPVSLGDQATISCRSSLSLVLSNRITYLQWYLQKPGQSPKLLIYKVSNRFSGVPDRFSGSGSGTDFTLKISRVEAEDLGVYFCSQSSHFPWTFGGGTKLEIKR
notes: Used as mouse ascites or as antibody purified from ascites; also called Mouse-Mouse hybridoma 13B (FERM BP-11304)
binds: all assays above

B2: monoclonal antibody 24B (antibody, V domains shown)
VH: EVQLQQSGTVLARPGASVKMSCKASVYSFPSNWMHWVKQRPGQGLEWIGAIYPGTGATRYNQKFKDKAKLTAVTSADTAYMELSSLTDEDSAVYYCTGYSLYWGQGTILTVSS
VL: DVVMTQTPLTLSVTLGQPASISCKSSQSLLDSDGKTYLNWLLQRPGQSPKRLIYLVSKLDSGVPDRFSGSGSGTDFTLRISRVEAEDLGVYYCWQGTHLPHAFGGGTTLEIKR
notes: Used as mouse ascites or as antibody purified from ascites; also called Mouse-Mouse hybridoma 24B (FERM BP-11305)
binds: all assays above
